# Earlier results, collected in paper PMC2996745.
# Target: VEGFR2 (flk-1) (Homo sapiens) (UniProt P35968)
# Chain of UniProt P35968 (P35968 20-1356): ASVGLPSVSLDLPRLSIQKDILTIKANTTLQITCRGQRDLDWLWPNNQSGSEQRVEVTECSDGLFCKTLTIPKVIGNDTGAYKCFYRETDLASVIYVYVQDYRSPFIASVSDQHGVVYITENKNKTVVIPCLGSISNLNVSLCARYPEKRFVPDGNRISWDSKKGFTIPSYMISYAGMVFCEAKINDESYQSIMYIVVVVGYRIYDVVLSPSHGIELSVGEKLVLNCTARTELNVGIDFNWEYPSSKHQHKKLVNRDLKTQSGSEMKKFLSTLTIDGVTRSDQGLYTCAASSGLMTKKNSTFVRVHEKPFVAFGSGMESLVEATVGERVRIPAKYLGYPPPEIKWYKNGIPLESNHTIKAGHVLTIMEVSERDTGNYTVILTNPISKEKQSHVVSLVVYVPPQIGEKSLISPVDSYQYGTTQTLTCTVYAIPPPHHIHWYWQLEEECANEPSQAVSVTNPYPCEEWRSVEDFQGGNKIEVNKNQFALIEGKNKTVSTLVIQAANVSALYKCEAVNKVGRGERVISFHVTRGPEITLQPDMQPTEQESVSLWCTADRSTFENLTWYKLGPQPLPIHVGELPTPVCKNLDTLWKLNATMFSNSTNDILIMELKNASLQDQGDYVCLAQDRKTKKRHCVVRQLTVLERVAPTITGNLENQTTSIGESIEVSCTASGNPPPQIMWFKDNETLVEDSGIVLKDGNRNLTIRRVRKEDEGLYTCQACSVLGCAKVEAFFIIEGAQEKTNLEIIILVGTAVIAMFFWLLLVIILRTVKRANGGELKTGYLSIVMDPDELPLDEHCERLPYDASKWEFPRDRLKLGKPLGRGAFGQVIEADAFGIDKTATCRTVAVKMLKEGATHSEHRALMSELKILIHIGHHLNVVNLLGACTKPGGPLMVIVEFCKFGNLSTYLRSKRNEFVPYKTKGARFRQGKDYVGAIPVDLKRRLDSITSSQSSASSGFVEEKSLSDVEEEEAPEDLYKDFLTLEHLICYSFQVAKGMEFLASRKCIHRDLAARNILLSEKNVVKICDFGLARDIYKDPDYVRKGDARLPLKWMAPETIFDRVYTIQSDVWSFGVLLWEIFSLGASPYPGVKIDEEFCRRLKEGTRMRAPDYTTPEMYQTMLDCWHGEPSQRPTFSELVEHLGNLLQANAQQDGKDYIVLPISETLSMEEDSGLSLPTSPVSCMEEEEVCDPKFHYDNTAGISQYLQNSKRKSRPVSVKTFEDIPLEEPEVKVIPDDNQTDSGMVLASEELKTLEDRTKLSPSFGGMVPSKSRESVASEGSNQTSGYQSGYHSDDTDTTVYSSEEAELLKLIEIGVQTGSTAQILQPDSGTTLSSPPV
substance,measurement,value
VEGF-A (from UniProt P15692),Kd,0.1 nM
